From the DeepSol protein solubility set

Experiment: soluble on expression in E. coli; label from the status in PepcDB or PDB records

Row | Sequence | soluble on expression in E. coli
1 | MSLAEILMGVGNAGLKESGNPDILVVYLPYPCTASFVFTDNYFKAGSVIYSERIARDKERIRAFVVNSGNANCGTGEEGIKHAEMMAEKVAQILDIPKDEVFVFSTGIIGKYLPIENVLKGIEQACSNLELLDLKRASEVISTTDRFPKYDFAKAGEVETFGFAKGAGMIHPSMATMLAFVFTNANLEYLTLKRIHESVTEKTFNSITVDGCESTNDAFGIISLGEVEADPETVEFELLKVSESLAKQIVADGEGATKIIRVNVRSAITEIKAREIAEAIANSLLVKTAVFGRDPNWGRIAAAAGSTEFPIDPFKLEIYVGGYLLYDGKPHDENLEKAKKHLIEDREVDITVELNEGEYEWVCYSSDIGYDYIKLNAEYTTEGHHHHHH | soluble
2 | MSLAELQMLLEEEIPSGKRALIESYQNLTRVADYCENNYIQATDKRKALEETKAYTTQSLASVAYQINALANNVLQLLDIQASQLRRMESSINHISQTVDIHKEKVARREIGILTTNKNTSRTHKIIAPANMERPVRYIRKPIDYTVLDDVGHGVKWLKAKHGNNQPARTGTLSRTNPPTQKEGHHHHHH | not soluble
3 | MSLAEQESLALFDDTTEELFMKGTMLSTIFYNAENLFSVVRILVKETNADWDEKDIIVTGFFPALHEQEVYTFYGKMQEHAKFGQQFKADRFRKEMPQSRAGLINYLSGELFKGIGKVTAENIVDTIGDDAITKILSDPSLLNTVPKLPSGAAESLLASLRENQGLEHVMVGLNEYGFGPQLSMKIFQAYKQNAIEVLENNPYKLIEDVKGIGFQRADELGRKLGLGGNHPERLRAGILFMLDSVCMQQGHVYMEQEVLLGEVTYLLEESEGIRIDQSILVAQVEKLAEEQKIITENTRVYMPSLYYSESGFAYHVKRMLKQTEYQEQFPQSEFLLALGELEERIGVHYGDSQRQALEQALMSPMLVLTGGPGTGKTTVIKGIVELYAELNGVSLDPHAYKDGATFPVLLAAPTGRAAKRMSESTGLPAMTIHRLLGMNGQEQMDDDAERLIDGRLLIVDEMSMVDIWLANQLFRALPAHMQVVLVGDQDQLPSVGPGQVLKDILQSEQIPTVALSDIYRQKDGSSIIEMAHYIKEGMLPADFTKNSADRSFFHCTVNQIGDVVEQVVKNAKNKGFRAKDIQVLAPMYRGPAGIDILNKKLQEIFNPNDTGRRKEVQFGDIKYRVHDKVLQLINQPEKNVFNGDIGEIVSIIYAKENTEKQDLIVVQFDQTEVSYYRQEFNQLTHAYCCSIHKAQGSEFPIVIMPIVRSYYRMLRRDLLYTGVTRSKQFLILCGEEEAFRMGIERIDENKRNTTLSERLMSEDVLLEQMTNKRILTAENITEIDPMIGMEGITPEQFMVGEGHHHHHH | soluble
4 | MSLAFPKIISVDDHTVEPPDVWRDRLPKKYQDTGPRIVRAPLKEMTFLGGKFAPVMGGPGDDGPLGDWWVYEDLHRPLTRLDTAVGYSRDEIKLEVITYEQMRPGSYDVPRRLADMDVNHVQSALCFPTFPRFCGQTFTEAKDRELGLLGVRAYNDWMVEEWCGPDAHGRLIPLTLVPLWDARLAAAEVRRNAARGVRAVAFSEIPPHLGLPSVHTDDWDPFLAACDETGTVIAMHIGSSSRMPSTSADAPPAVGSTITFANCCFSMVDWLMSGKFERFPNLRVMYAEGQIGWIPYILERADVVWEENRGWGGVADKVHRPPSELFAGHVFGCFFDDAFGLRNLDAIGIGNVLYETDYPHSDSTWPKSREVGEAQMGHLEAEVVERIVRGNAIELLGLTDDGEGHHHHHH | not soluble
5 | MSLAGKKIVLGVSGGIAAYKTPELVRRLRDRGADVRVAMTEAAKAFITPLSLQAVSGYPVSDSLLDPAAEAAMGHIELGKWADLVILAPATADLIARVAAGMANDLVSTICLATPAPVAVLPAMNQQMYRAAATQHNLEVLASRGLLIWGPDSGSQACGDIGPGRMLDPLTIVDMAVAHFSPVNDLKHLNIMITAGPTREPLDPVRYISNHSSGKMGFAIAAAAARRGANVTLVSGPVSLPTPPFVKRVDVMTALEMEAAVNASVQQQNIFIGCAAVADYRAATVAPEKIKKQATQGDELTIKMVKNPDIVAGVAALKDHRPYVVGFAAETNNVEEYARQKRIRKNLDLICANDVSQPTQGFNSDNNALHLFWQDGDKVLPLERKELLGQLLLDEIVTRYDEKNRR | soluble
6 | MSLAGSWETYTMKVPSEKNLPTTKVVLKMPKDVEFQQYEPIPGWKVSTQKHDDKSVSVTWEATDGGIQEGQFQQFTFVAKNPDKAEEAAWDAYQYYKDGSIVEWTGDEDADTPHSITNITSAKQVTDEHGATKTEDDSENSGSSALDITAMVLSAAAIILSVAALVKKKRAEGHHHHHH | soluble
7 | MSLAHAQMEMPPRSLGAVIEQAEAQEAPILLEVYAPWCPYCQRMQENVYADAEVRSYLDRRFTYARLNRDTTGGTHRFNGRTLSSKELGMALGARGVPTTVFMKPDGTPIAKQPGYIKRPVFLQMLRYFGSGAYEEQSFEAFRARASEGHHHHHH | not soluble
8 | MSLAHEMIGTQIVTERLVALLESGTEKVLLIDSRPFVEYNTSHILEAININCSKLMKRRLQQDKVLITELIQHSAKHKVDIDCSQKVVVYDQSSQDVASLSSDCFLTVLLGKLEKSFNSVHLLAGGFAEFSRCFPGLCEGKSTLVPTCISQPCLPVANIGPTRILPNLYLGCQRDVLNKELMQQNGIGYVLNASNTCPKPDFIPESHFLRVPVNDSFCEKILPWLDKSVDFIEKAKASNGCVLVHCLAGISRSATIAIAYIMKRMDMSLDEAYRFVKEKRPTISPNFNFLGQLLDYEKKIKNQTEGHHHHHH | soluble
9 | MSLAIQNPYTAYQQNSVNTATPGELTLMLYNGCLKFIRLAAQAIENDDMERKNENLIKAQNIIQELNFTLNRNIELSASMGAMYDYMYRRLVQANIKNDTGMLAEVEGYVTDFRDAWKQAIQSERKDRHGSGGIAEGGSHHHHHH | soluble
10 | MSLAKGIMLHEVGEQVDQYLLIKSSTKGIASNGKPFLTLMLQDQSGDIEAKLWDAKQSDEVTYAPQTIVKVVGDVHHYRGRTQLKLRNIRPVSEQENVNIDDFLETAPIPKNEMMDTITQYIFEMKNPNIQRITRFLVKKHEAEFMDYPAATKNHHEFVSGLAYHVVSMLNLAKAIADLYPSLDRDLLYAGVILHDLGKVKELSGPVSTSYTVEGNLLGHISIMVTELSKAAEELQIDSEEVLILQHLILSHHGKAEWGSPKPPMVKEAEILHYIDNLDAKMNMMDRALERVKPGEYTERVFALENRSFYKPTFHKEGGSHHHHHH | soluble
11 | MSLAKNIVFIGFMGSGKSTLARALAKDLDLVFLDSDFLIEQKFNQKVSEIFEQKRENFFREQEQKMADFFSSCEKACIATGGGFVNVSNLEKAGFCIYLKADFEYLKKRLDKDEISKRPLFYDEIKAKKLYNERLSKYEQKANFILNIENKNIDELLSEIKKVIKEGGSHHHHHH | soluble
12 | MSLAKRIVPCLDVHAGRVVKGVNFVNLRDAGDPVEAARAYDEAGADELVFLDISATHEERAILLDVVARVAERVFIPLTVGGGVRSLEDARKLLLSGADKVSVNSAAVRRPELIRELADHFGAQAVVLAIDARWRGDFPEVHVAGGRVPTGLHAVEWAVKGVELGAGEILLTSMDRDGTKEGYDLRLTRMVAEAVGVPVIASGGAGRMEHFLEAFQAGAEAALAASVFHFGEIPIPKLKRYLAEKGVHVRLD | soluble
13 | MSLALGSYIERRGELETYFDRTAADTWAKLTSDAPVSGIRATVRAGRDEMRNTLLSWLPADMTGTRLLDAGCGTGALSIEAARRGAKIVAIDLSPTLVAVARERLPDDIDPAAIDFRSGDMLDPELGEFDFVVAMDSLIHYLPHDICRMLATLASRTRQSMAVTFAPKTPLLTLMHFVGGFFPRADRAPAIEPISEKTLRGLVAEDPLLAQWQPGRTHRVSSGFYTSQALEMVREGHHHHHH | soluble
14 | MSLALVVQKYGGSSVADAERIRRVAERIVATKKQGNDVVVVVSAMGDTTDDLLDLAQQVCPAPPPRELDMLLTAGERISNALVAMAIESLGAHARSFTGSQAGVITTGTHGNAKIIDVTPGRLQTALEEGRVVLVAGFQGVSQDTKDVTTLGRGGSDTTAVAMAAALGADVCEIYTDVDGIFSADPRIVRNARKLDTVTFEEMLEMAACGAKVLMLRCVEYARRHNIPVHVRSSYSDRPGTVVVGSIKDVPMEDPILTGVAHDRSEAKVTIVGLPDIPGYAAKVFRAVARRRRQHRHGAAERLQGRGRQDRHHLHLLPQTSGPPPWKNWTRSETRSASTQLLYDDHIGKVSLIGAGMRSHPGVTATFCEALAAVGVNIELISTSEDQRSRCCAATPNWTRPWSRCMKRSGSAATRRPRCTRGRDGRWACQEGHHHHHH | not soluble
15 | MSLANLFESHSPAGPLANRMRPQSLDEIVGQRHLIGESTLLRRAILADRLGTVIFYGPPGTGKTTLARVISSYTKSAFEQLNAVTAKLDQLREVLKAAESRLQFDQQKTILFLDEIHRFNKMQQDALLPALEAGTITLIGATTENPSFEVNAALLSRATVFRFETPTTEDLRVVLHRTLHDTERGLGKYPITVTEEAVDHYVKLSDGDYRALLNALELAVLTTPEIDGEITIDLSVAEESIQQKALKYDKDGDRHYDVISAFIKSIRGSDPDAALYWLAVMIEAGESPRFIVRRLYVHAAEDIGMSDPQALLIVDACARACEYIGFPEARIPLAETVLYLATAPKSNTVITAIDQALELVRRSDGGPVPPHLRDAHHAGAAALGNGVEYQYPHQFPHAYVKQNYWPENLARTKPVFYKPSPRGFEKQLQARLDFWKKQEGHHHHHH | soluble
16 | MSLAPRLKLRDITFFERPVQFARPFRFGAITMNATTQLFVRVEIEVEGRGSAVGASAELLVPKWFDKRPEFSPAQTVDGLRRSLEIARGLYLARTGFLTAFDLHAACIGAQIATCAKKNIPALAAAYGLAEIDKAILDALLRGVETGFFDGMAGNVAGIDARLSPDLKDAEIAAFLSSRKPLPRVAIRHTVGLDDTVEGKGGVADAHENAGASYFKLKLSGDPAADAARLARIGKELDTLGRSYKVTLDANEQYADLAALQALMDRLDHDSDLRPIASRLLYVEQPMPRDITRQSPLGSLAARGFIIDEADDSYDAFPAARALGYHGISSKSCKGLYKSIVSATRAAKWSGGGEKFFVTGEDLTCQAGLAVQQDLAMGAFLGVTHAERNGHHYVDGFGDTPAAEAAAFAAAHPDLYADAGQGIRLSIHDGDLLTGSLHAAGFATSVHPDWSALRPLEQPTSLQEQLAEGHHHHHH | not soluble
17 | MSLAPVNIFKAGADEERAETARLTSFIGAIAIGDLVKSTLGPKGMDKILLSSGRDASLMVTNDGATILKNIGVDNPAAKVLVDMSRVQDDEVGDGTTSVTVLAAELLREAESLIAKKIHPQTIIAGWREATKAAREALLSSAVDHGSDEVKFRQDLMNIAGTTLSSKLLTHHKDHFTKLAVEAVLRLKGSGNLEAIHIIKKLGGSLADSYLDEGFLLDKKIGVNQPKRIENAKILIANTGMDTDKIKIFGSRVRVDSTAKVAEIEHAEKEKMKEKVERILKHGINCFINRQLIYNYPEQLFGAAGVMAIEHADFAGVERLALVTGGEIASTFDHPELVKLGSCKLIEEVMIGEDKLIHFSGVALGEACTIVLRGATQQILDEAERSLHDALCVLAQTVKDSRTVYGGGCSEMLMAHAVTQLANRTPGKEAVAMESYAKALRMLPTIIADNAGYDSADLVAQLRAAHSEGNTTAGLDMREGTIGDMAILGITESFQVKRQVLLSAAEAAEVILRVDNIIKAAPRKRVPDHHEGHHHHHH | soluble
